Test results reported in patent US7164000.

Sequence of wild-type RANTES (P13501 24-91): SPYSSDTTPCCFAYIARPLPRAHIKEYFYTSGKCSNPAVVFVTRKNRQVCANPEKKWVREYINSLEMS

What follows are substances tested against CCR5 (UniProt P51681) (assay: cell-based or functional assay).
“RANTES mutant pVU15 (Ser 1 to Cys, Ser 5 to Cys) (from UniProt P13501 24-91) (ligand)” was tested, and the concentration giving the highest inhibition of wild-type RANTES activity (calcium mobilisation) was 500 ng/mL, the relative antiviral activity (ID90 RANTES/ID90 mutant), MDM, HIV-1BaL (fold compared to wild-type RANTES) was 4.5 and the relative antiviral activity (ID90 RANTES/ID90 mutant), PBMC, HIV-1 6366 (fold compared to wild-type RANTES) was 3.3. For the same substance, the relative antiviral activity (ID90 RANTES/ID90 mutant), PBMC, HIV-1BaL (fold compared to wild-type RANTES) was 3.07.
“RANTES mutant pVU14 (Tyr 3 to Ala) (from UniProt P13501 24-91) (ligand)” showed a relative antiviral activity (ID90 RANTES/ID90 mutant), MDM, HIV-1BaL (fold compared to wild-type RANTES) of 0.23, a relative antiviral activity (ID90 RANTES/ID90 mutant), PBMC, HIV-1 6366 (fold compared to wild-type RANTES) of 0.1 and a relative antiviral activity (ID90 RANTES/ID90 mutant), PBMC, HIV-1BaL (fold compared to wild-type RANTES) of 0.22.
Work on “RANTES mutant pVU43 (Lys 45 to Glu) (from UniProt P13501 24-91) (ligand)” yielded a relative antiviral activity (RANTES ID50/mutant ID50), PBMC, HIV-1BaL (fold compared to wild-type RANTES) of 1.44.
“RANTES mutant pVU38 (Asp 6 to Arg) (from UniProt P13501 24-91) (ligand)” was tested, and the relative antiviral activity (ID90 RANTES/ID90 mutant), PBMC, HIV-1 6366 (fold compared to wild-type RANTES) was 0.13 and the relative antiviral activity (ID90 RANTES/ID90 mutant), PBMC, HIV-1BaL (fold compared to wild-type RANTES) was 0.14.
For “RANTES mutant pVU5 (Ser 1 to Cys) (from UniProt P13501 24-91) (ligand)”, the relative antiviral activity (ID90 RANTES/ID90 mutant), MDM, HIV-1BaL (fold compared to wild-type RANTES) was 0.25, the relative antiviral activity (ID90 RANTES/ID90 mutant), PBMC, HIV-1 6366 (fold compared to wild-type RANTES) was 0.23 and the relative antiviral activity (ID90 RANTES/ID90 mutant), PBMC, HIV-1BaL (fold compared to wild-type RANTES) was 0.24.
With “wild-type RANTES (from UniProt P13501 24-91) (ligand)” the ID90, inhibition of HIV-1BaL infection of PBMC (p24 antigen) was 0.096 µg/mL.
For “RANTES mutant pVU26 (Arg 44 to Glu) (from UniProt P13501 24-91) (ligand)”, the relative antiviral activity (RANTES ID50/mutant ID50), PBMC, HIV-1BaL (fold compared to wild-type RANTES) was 3.16.
For “RANTES mutant pVU24 (Arg 17 to Ala) (from UniProt P13501 24-91) (ligand)”, the relative antiviral activity (ID90 RANTES/ID90 mutant), PBMC, HIV-1 6366 (fold compared to wild-type RANTES) was 1.3 and the relative antiviral activity (ID90 RANTES/ID90 mutant), PBMC, HIV-1BaL (fold compared to wild-type RANTES) was 1.09.
With “RANTES mutant pVU22 (Tyr 14 to Phe) (from UniProt P13501 24-91) (ligand)” the relative antiviral activity (ID90 RANTES/ID90 mutant), PBMC, HIV-1 6366 (fold compared to wild-type RANTES) was 2.5 and the relative antiviral activity (ID90 RANTES/ID90 mutant), PBMC, HIV-1BaL (fold compared to wild-type RANTES) was 10.
With “RANTES mutant pVU17 (additional N-terminal Leucine) (from UniProt P13501 24-91) (ligand)” the relative antiviral activity (ID90 RANTES/ID90 mutant), MDM, HIV-1BaL (fold compared to wild-type RANTES) was 11, the relative antiviral activity (ID90 RANTES/ID90 mutant), PBMC, HIV-1 6366 (fold compared to wild-type RANTES) was 1.9 and the relative antiviral activity (ID90 RANTES/ID90 mutant), PBMC, HIV-1BaL (fold compared to wild-type RANTES) was 4.6.
